From the nanobody polyreactivity screen of Harvey et al. (2022)

Assay: yeast display, Sf9 membrane polyspecificity reagent, FACS + sequencing; frameworks hold sequencing errors
Method in brief: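 Galactose induction of a Saccharomyces cerevisiae BJ5465 synthetic nanobody display library ran 36–48 hours. The cells were then stained for 1 hour at 4 °C with 10% biotinylated, detergent-solubilized Sf9 membrane reagent, pulled down on streptavidin microbeads and FACS-sorted into low and high (top ~1%) gates on expression and reagent-binding fluorescence. Labels for polyreactivity follow the gate of origin.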

Sequence | polyreactivity (PSR sort gate)
QVQLVESGGGLVQAGGSLRLSSAASGFTFKYYAMGWYRQAPGKERELVARITGSSGSTYYADSVKGRFTISRDNAKNTVYLQMNSLKPEDTAVYYCAASFKFRYYRYGAYEYWGQGTQVTVSS | high polyreactivity
QVQLVESGGGLVQAGGSLRLSSAASGFTFRAYTMGWYRQAPGKERELVAAISWSGSSTYYADSVKGRFTISRDTAKNTVYLQMNSLKPEDTAVYYCAARHWRRWFPYDYWGQGTQVTVSS | high polyreactivity
QVQLVESGGGLVQAGGSLRLSSAASGFTFTIYAMGWYRPAPGKERELVDTISTRGGNTYYADSVKGRFTISRDNAKNTVYLQMNSLKPEDTAVYYCAAEHWFPSAPWYYSDLHYYWGQGTQVTVSS | high polyreactivity
QVQLVESGGGLVQAGGSLRLSSAASGFTFWYYAMGWYRQAPGKERELVAAITWNGGSTYYADSVKGRFTISRDNAKNTVYLQMNSLKPEDTAVYYCNAYSPFYPVPSEYDYWGQGTQVTVSS | high polyreactivity
QVQLVESGGGLVQAGGSLRLSSAASGIIFRGYVMGWYRQAPGKERELVAASTWSGGSTYYADSVKGRFTISRDNAKNTVYLQMNSLKPEDTAVYYCNAVRVRVTSHRIRQLDYGYWGQGTQVTVSS | low polyreactivity
QVQLVESGGGLVQAGGSLRLSSAASGIIFRRYAMGWYRQAPGKERELVAAMSWSGGSTYYADSVKGRFTISRDNAKNTVYLQMNSLKPEDTAVYYCAAAAYTRDEYDYWGQGTQVTVSS | high polyreactivity
QVQLVESGGGLVQAGGSLRLSSAASGITFLTNAMGWYRQAPGKERELVAAISGRGTRTYYADSVKGRFTISRDNAKKTVFLQMNRLKPEDTAVYYCAAVRRPVHYPYDYWGQGNQVTVSS | high polyreactivity
QVQLVESGGGLVQAGGSLRLSSAASGITFRRYAMGWYRQAPGKERELVASITSGGSTNYADSVKGRFTISRDNAKYTVYLQMNSLKPDDTAVYYCAADSRWGMDYWGQGTQVTVSS | high polyreactivity
QVQLVESGGGLVQAGGSLRLSSAASGITFSEYAMGRYRQAPGKERELVATITSGGSTNYADSVKGRFTISRDNAKNTVYLQMNSLKPEDTAVYYCNALDGTVDFSGWYDDWGQGTQVTVSS | low polyreactivity
QVQLVESGGGLVQAGGSLRLSSAASGITFSKNAMGRYRQAPGKERELVAAISNSGGSTYYADSVKGRFTISRDNAKNTVYLQMNSVNPEDTAVYYCASDGGYAYGYNHWGQGTQVTVSS | low polyreactivity
QVQLVESGGGLVQAGGSLRLSSAASGLIYPVYAMGWYRQAPGKEREFVASIWRGGTTYYADSVKGRFTISRDNAKNTVYLQMTSLKPEDTAVYYCASRYYPRGLVFPFTKYDYWGLGTQVTVSS | high polyreactivity
QVQLVESGGGLVQAGGSLRLSSAASGLTFFTYTMGWYRQAPGKERELVATINSSGGTTYYADSVKGRFTISRDNAKNTVYLQMNSLKPEDTAVYFCAKRFSPRYYYWGQGTQVTVSS | high polyreactivity
QVQLVESGGGLVQAGGSLRLSSAASGLTFKGYAIGWYRQEPGKESELVAANNGSGGSTYYADSVKRRFTISRDNAKNTVYLQMNSLKPEDTAVYYCNAARGHPYPLSDNVDDYDYWGQGTQVTVSS | low polyreactivity
QVQLVESGGGLVQAGGSLRLSSAASGRIFAVYAMGWYRQAPGKEREFVAAISYSGGITYYADSVKGRFTISRDNAKNTVYLQMNSLKPEDTAVYYCNAYYYFWGQGTQVTVSS | low polyreactivity
QVQLVESGGGLVQAGGSLRLSSAASGRIFPFNAMGWYRQAPGKERELVAAITSSGGRTYYADSVKGRFTISRDNAKNTVYLQMNSLTPEDTAVYYCAGTLVRRARSGPMGYWGQGTQVTVSS | high polyreactivity
QVQLVESGGGLVQAGGSLRLSSAASGRIFRVNAMGLYTQAPGKERELVAAISRRGGSTYYADSVKGRFTISRDNAKNTVYLQMNTLKPEDTAVYYCAKKSYSYGYNSYYYWGQGTQVTVSS | high polyreactivity

Sequence | polyreactivity (PSR sort gate)
QVQLVESGGGLVQAGGSLRLSSAASGRIFSDYAMGWYRQAPGKERELVATITSGDSTNYADSVKGRFTISRDNAKNTVYLQMNSLKPEDTAVYYCNADRFADYDYWGQGTQVTVSS | low polyreactivity
QVQLVESGGGLVQAGGSLRLSSAASGRIFSIYAMGWYRQAPGKERELVAAITDRGGTTHYADSVKGRFTISRDYAKNTVYLQMNSLKPEDTAVYYCASDTYDYSSVEDFDYWGQGTQVTVSS | low polyreactivity
QVQLVESGGGLVQAGGSLRLSSAASGRIFSRNTMGCYRQAPGKERELVAAIRYSGGRTYYADSVKGRFTISRDNAKNTVYLQMNCLKQEDTAVYYCAARWYGQGVSYRMDYWGQGTQVTVSS | high polyreactivity
QVQLVESGGGLVQAGGSLRLSSAASGRIFTYYAMGWYRQAPGKVREVVAAISFRGASTYYADSVKGRVTISRDYAQNTVYLQMHSLKPEDTAVYYGAAERIARPTIDYWGQGTQVTVSS | low polyreactivity
QVQLVESGGGLVQAGGSLRLSSAASGRIFVVNAMGWYRQAPGKERELVAAISKSGARTYYADSVKGRFTISRDNAKNTVYLQMNSLKPEDTAVYYCAAESKGYSQSVFPYDYWGQGTQVTVSS | high polyreactivity
QVQLVESGGGLVQAGGSLRLSSAASGRIFYGYAMGWYRQAPGKERELVAAITNTGVDTYYADSVKGRFTISRDNEKNTVYLQMNSLKPEDTAVYYCAADGRRPKSGYWGQGTQVTVSS | low polyreactivity
QVQLVESGGGLVQAGGSLRLSSAASGRTFAGYTMGWYRQAPGKERELVAAITKSGGSTYYADSVKGRFTISRDNAKNTVYLQMNSLKPEDTAFYYCAARYIPSRYGTGGGYYSWGQGTQVTVSS | high polyreactivity
QVQLVESGGGLVQAGGSLRLSSAASGRTFNYYPMGWYRQAPGKQWELVAAISDSAGDTYYADSVKGRFTISRDNAKNTVDLQKNSQKPEDPAVYYCAVVRGGRGYPGYDYWGQGTQVTVSS | low polyreactivity
QVQLVESGGGLVQAGGSLRLSSAASGRTFQYYAMGWYRQAPGKERELVAAITSGGSTYYADSVKGRFTISRDNAKNTVSLQMNSLKPEDTAVYYCAATFYYSGHDDYWGQGTQVTVSS | low polyreactivity
QVQLVESGGGLVQAGGSLRLSSAASGRTFRRYAMGWYRQAPGKERELVATITNAGSTYYADSVKGRFTISRDNAKNTVYLPMNSLKPEDTAVYYCAARVPYKSDYWGQGTQVTVSS | low polyreactivity
QVQLVESGGGLVQAGGSLRLSSAASGRTFRYNAMGWYRQAPGKERELVAAISWSGTSTYYADSVKGRFTISRDNAKNTVYLQMNSLKPEDTAVYYCAARGLYDYGYWGQGTQVTVSS | high polyreactivity
QVQLVESGGGLVQAGGSLRLSSAASGRTFTTYAMGWYRQAHGKERELVAAISGSGGSTYYADSVKGRFTISRDNAKNTVYLQMNSLKPEDTAVYYCATAYYYHGGYYYPYDDYWGQGTQVTVSS | low polyreactivity
QVQLVESGGGLVQAGGSLRLSSAASGRTFVHYAMGWYRQAPGKERELVAAISWSGGSTYYADSVKGRFTISRDNAKNTVYLQMNSLKPEDTAVYYCNAGGFAPGRYGEFDYWGQGTQVTVSS | low polyreactivity
QVQLVESGGGLVQAGGSLRLSSAASGRTFVSYAMGWYRQAPGKERELVAVITYSGGSTNYADSVKGRFTISRDNAKNTVYLQMNSLKPEDTAVYYCAATQSIPYSTLYSYDYWGQGTQVTVSS | low polyreactivity
QVQLVESGGGLVQAGGSLRLSSAASGRTFYGNAMGWYRQAPGKERELVATINYSGGSTYYADSVKGRFTISRDNAKNTVYLQMNSLKPEDTAVYYCAAVDPEEFDYWGQGTQVTVSS | low polyreactivity
QVQLVESGGGLVQAGGSLRLSSAASGSIFETYAMGWSRQAPGKERELVAAITQSGGSTYYADSVKGRFTISRDNAKNTVYLQMNSLKPEDTAVYYCAADLVVWWKWGYEYWGQGTQVTVSS | low polyreactivity
